According to publication PMC3923656 (Journal of cellular biochemistry, 2009):

Biological target: T1, GST-Hoxa1-993 (mouse, UniProt P09022 1-331)
T1 sequence (looked up): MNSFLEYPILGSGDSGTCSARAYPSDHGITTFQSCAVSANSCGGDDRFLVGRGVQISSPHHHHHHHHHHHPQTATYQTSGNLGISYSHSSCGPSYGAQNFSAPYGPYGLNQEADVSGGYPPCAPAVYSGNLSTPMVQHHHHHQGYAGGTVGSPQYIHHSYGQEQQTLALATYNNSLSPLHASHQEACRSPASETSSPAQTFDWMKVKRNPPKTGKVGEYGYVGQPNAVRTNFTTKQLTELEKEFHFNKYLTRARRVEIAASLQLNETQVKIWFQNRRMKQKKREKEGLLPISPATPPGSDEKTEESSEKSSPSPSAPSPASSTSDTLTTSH
Assay: pull-down

fold bound over GST alone: 8 fold
B1: Hoxa1-399, [35S]-labeled, in vitro translated (natural protein, mouse, UniProt P09022-2 1-133, looked up)
chain: MNSFLEYPILGSGDSGTCSARAYPSDHGITTFQSCAVSANSCGGDDRFLVGRGVQISSPHHHHHHHHHHHPQTATYQTSGNLGISYSHSSCGPSYGAQNFSAPYGPYGLNQEADPPRSLSFPCFRDVFSSADL
modifications: [35S]-cysteine radiolabel
